Numbering of substitutions follows the chain as printed.
How the values were obtained:
sortilin Y781K = biological target: T1, sortilin Y781K (human, UniProt Q99523 78-831, Y781K); assay: co-IP; HEK293MSR cells overexpressing sortilin WT or TMD mutants along with NSG1; lysis in 5 mM CHAPS buffer; IP with rabbit anti-sortilin (control rabbit IgG), protein A-agarose, 4 °C; NSG1 normalized to precipitated sortilin, percent of WT; five independent experiments; settings: partners not purified
T1 construct: signal peptide in the construct; propeptide too; Full-length human SORT1 with a mutation at the cytoplasmic border of the TMD; source: HEK293MSR, transfected, in lysate (5 mM CHAPS)
T1 sequence (looked up): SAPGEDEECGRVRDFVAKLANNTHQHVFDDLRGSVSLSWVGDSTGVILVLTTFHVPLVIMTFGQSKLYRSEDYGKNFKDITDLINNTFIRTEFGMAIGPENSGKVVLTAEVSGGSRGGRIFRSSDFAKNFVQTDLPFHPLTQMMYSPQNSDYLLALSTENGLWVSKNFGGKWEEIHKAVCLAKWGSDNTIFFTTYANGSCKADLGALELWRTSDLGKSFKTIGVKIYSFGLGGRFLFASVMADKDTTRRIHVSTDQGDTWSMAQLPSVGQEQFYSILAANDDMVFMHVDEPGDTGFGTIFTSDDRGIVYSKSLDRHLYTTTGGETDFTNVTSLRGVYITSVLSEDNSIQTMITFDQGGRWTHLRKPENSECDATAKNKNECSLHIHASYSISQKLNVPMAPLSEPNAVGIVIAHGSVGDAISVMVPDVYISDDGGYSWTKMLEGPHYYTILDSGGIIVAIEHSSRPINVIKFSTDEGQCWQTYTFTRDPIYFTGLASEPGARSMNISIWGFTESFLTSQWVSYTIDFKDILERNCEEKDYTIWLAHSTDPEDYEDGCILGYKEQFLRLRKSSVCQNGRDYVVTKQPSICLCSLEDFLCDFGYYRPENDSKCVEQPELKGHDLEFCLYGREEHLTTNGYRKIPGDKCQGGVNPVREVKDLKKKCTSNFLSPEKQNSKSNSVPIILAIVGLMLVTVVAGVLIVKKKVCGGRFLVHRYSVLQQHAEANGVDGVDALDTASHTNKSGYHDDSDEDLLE

sortilin T770W [1] = biological target: T2, sortilin T770W (human, UniProt Q99523 78-831, T770W); assay: as above; settings: partners not purified
T2 construct: signal peptide in the construct; propeptide too; Full-length human SORT1 with a mutation in the TMD; source: HEK293MSR, transfected, in lysate (5 mM CHAPS)
T2 sequence (looked up): T1 sequence (looked up) with T693W, K704Y

sortilin A773W [2] = biological target: T3, sortilin A773W (human, UniProt Q99523 78-831, A773W); assay: as above; settings: partners not purified
T3 construct: signal peptide in the construct; propeptide too; Full-length human SORT1 with a mutation in the TMD; source: HEK293MSR, transfected, in lysate (5 mM CHAPS)
T3 sequence (looked up): T1 sequence (looked up) with A696W, K704Y

sortilin T770W [3] = biological target: T2, sortilin T770W; assay: cell-based or functional assay
sortilin A773W [4] = biological target: T3, sortilin A773W; assay: cell-based or functional assay

NSG1 coimmunoprecipitated, normalized to immunoprecipitated sortilin, percent of WT sortilin (sortilin Y781K): 130% | NSG1 coimmunoprecipitated, normalized to immunoprecipitated sortilin, percent of WT sortilin (sortilin T770W [1]): 146% | NSG1 coimmunoprecipitated, normalized to immunoprecipitated sortilin, percent of WT sortilin (sortilin A773W [2]): 129% | sortilin ectodomain accumulated in conditioned media of HEK293MSR cells cotransfected with NSG1 (Western blot), percent of WT sortilin (sortilin T770W [3]): 40 % of WT sortilin | sortilin ectodomain accumulated in conditioned media of HEK293MSR cells cotransfected with NSG1 (Western blot), percent of WT sortilin (sortilin A773W [4]): 46 % of WT sortilin
B1: neuron-specific gene 1 (NSG1) (natural protein, human, UniProt P42857 1-185, looked up)
chain: MVKLGNNFAEKGTKQPLLEDGFDTIPLMTPLDVNQLQFPPPDKVVVKTKTEYEPDRKKGKARPPQIAEFTVSITEGVTERFKVSVLVLFALAFLTCVVFLVVYKVYKYDRACPDGFVLKNTQCIPEGLESYYAEQDSSAREKFYTVINHYNLAKQSITRSVSPWMSVLSEEKLSEQETEAAEKSA
notes: Human NSG1, subcloned from the pPR3 yeast two-hybrid library vector into pcDNA3; UniProt P42857 is printed for the modelling; no tag is named, detection with an anti-NSG1 antibody; source: HEK293MSR, transiently transfected, in lysate (5 mM CHAPS)

Reference: paper PMC12603737, “Transmembrane domain interactions underlie NSG1 regulation of sortilin ectodomain shedding” (The Journal of Biological Chemistry, 2025)
